Results as given in US7582460B2 (Wacker Chemie AG, priority 2003, dated 2009).
Where a chain is given by its changes, count along the chain named. Names and notes keep the numbering of the source.

B1: serA40: E. coli PGD variant, mutation at codon 349 printed G349 (G349D per Table 3) (protein, UniProt P0A9T0 2-410, looked up, variant G349D)
D-3-phosphoglycerate …: AKVSLEKDKIKFLLVEGVHQKALESLRAAGYTNIEFHKGALDDEQLKESIRDAHFIGLRSRTHLTEDVINAAEKLVAIGCFCIGTNQVDLDAAAKRGIPVFNAPFSNTRSVAELVIGELLLLLRGVPEANAKAHRGVWNKLAAGSFEARGKKLGIIGYGHIGTQLGILAESLGMYVYFYDIENKLPLGNATQVQHLSDLLNMSDVVSLHVPENPSTKNMMGAKEISLMKPGSLLINASRGTVVDIPALCDALASKHLAGAAIDVFPTEPATNSDPFTSPLCEFDNVLLTPHIGGSTQEAQENIGLEVAGKLIKYSDNGSTLSAVNFPEVSLPLHGGRRLMHIHENRPDVLTALNKIFAEQGVNIAAQYLQTSAQMGYVVIDIEADEDVAEKALQAMKAIPGTIRARLLY
B2: serA20: E. coli PGD variant with replacement T372I (protein, UniProt P0A9T0 2-410, looked up, variant T372I)
D-3-phosphoglycerate …: B1 D-3-phosphoglycerate … with D348G, T371I
B3: serA45: E. coli PGD variant with replacement G349I (protein, UniProt P0A9T0 2-410, looked up, variant G349I)
D-3-phosphoglycerate …: B1 D-3-phosphoglycerate … with D348I
B4: serA218: E. coli PGD variant with replacement T372N (protein, UniProt P0A9T0 2-410, looked up, variant T372N)
D-3-phosphoglycerate …: B1 D-3-phosphoglycerate … with D348G, T371N
B5: serA210: E. coli PGD variant with replacement T372W (protein, UniProt P0A9T0 2-410, looked up, variant T372W)
D-3-phosphoglycerate …: B1 D-3-phosphoglycerate … with D348G, T371W
B6: serA46: E. coli PGD variant with replacement G349M (protein, UniProt P0A9T0 2-410, looked up, variant G349M)
D-3-phosphoglycerate …: B1 D-3-phosphoglycerate … with D348M
B7: serA226: E. coli PGD variant with replacement T372L (protein, UniProt P0A9T0 2-410, looked up, variant T372L)
D-3-phosphoglycerate …: B1 D-3-phosphoglycerate … with D348G, T371L
B8: serA214: E. coli PGD variant with replacement T372A (protein, UniProt P0A9T0 2-410, looked up, variant T372A)
D-3-phosphoglycerate …: B1 D-3-phosphoglycerate … with D348G, T371A
B9: serA212: E. coli PGD variant with replacement T372F (protein, UniProt P0A9T0 2-410, looked up, variant T372F)
D-3-phosphoglycerate …: B1 D-3-phosphoglycerate … with D348G, T371F
B10: serA228: E. coli PGD variant with replacement T372M (protein, UniProt P0A9T0 2-410, looked up, variant T372M)
D-3-phosphoglycerate …: B1 D-3-phosphoglycerate … with D348G, T371M
B11: serA220: E. coli PGD variant with replacement T372S (protein, UniProt P0A9T0 2-410, looked up, variant T372S)
D-3-phosphoglycerate …: B1 D-3-phosphoglycerate … with D348G, T371S
B12: serA208: E. coli PGD variant with replacement T372H (protein, UniProt P0A9T0 2-410, looked up, variant T372H)
D-3-phosphoglycerate …: B1 D-3-phosphoglycerate … with D348G, T371H
B13: serA219: E. coli PGD variant with replacement T372G (protein, UniProt P0A9T0 2-410, looked up, variant T372G)
D-3-phosphoglycerate …: B1 D-3-phosphoglycerate … with D348G, T371G
B14: serA222: E. coli PGD variant with replacement T372V (protein, UniProt P0A9T0 2-410, looked up, variant T372V)
D-3-phosphoglycerate …: B1 D-3-phosphoglycerate … with D348G, T371V
B15: serA47: E. coli PGD variant with replacement G349E (protein, UniProt P0A9T0 2-410, looked up, variant G349E)
D-3-phosphoglycerate …: B1 D-3-phosphoglycerate … with D348E
B16: serA231: E. coli PGD variant with replacement T372C (protein, UniProt P0A9T0 2-410, looked up, variant T372C)
D-3-phosphoglycerate …: B1 D-3-phosphoglycerate … with D348G, T371C
B17: serA11: E. coli PGD variant with replacement T372Y (protein, UniProt P0A9T0 2-410, looked up, variant T372Y)
D-3-phosphoglycerate …: B1 D-3-phosphoglycerate … with D348G, T371Y
B18: serA221: E. coli PGD variant with replacement T372Q (protein, UniProt P0A9T0 2-410, looked up, variant T372Q)
D-3-phosphoglycerate …: B1 D-3-phosphoglycerate … with D348G, T371Q

Legend:
[1] = system: 3-phosphoglycerate dehydrogenase (PGD); assay: PGD enzyme activity in crude extracts (McKitrick and Pizer test); assay type: biochemical, Escherichia coli; settings: crude extract of strain expressing plasmid-encoded serA allele; backward reaction, NADH oxidation at 340 nm
From the text: (§1) For example, the PGD activity can be determined in analogy with the method described by McKitrick and Pizer (1980, J. Bacteriol. 141:235-245). The backward reaction is used to measure the enzyme activity in an assay sample which contains phosphohydroxypyruvate and NADH/H^+. The reaction is started by adding enzyme and is monitored in a spectrophotometer by way of the decrease in extinction at 340 nm which is caused by oxidation of the NADH/H^+.
(§2) At an optical density of 1.0, serA expression was in each case induced by adding 0.4 mM […] and the culture was incubated for a further 3 hours. The cells were subsequently harvested by centrifugation, washed and resuspended in 2 ml of buffer (100 mM K-phosphate, pH 7.0; 10 mM MgCl2; 1 mM dithiothreitol). The cells were disrupted using a French press (Spectronic Instruments, Inc. Rochester, N.Y., USA) at a pressure of 18 000 psi. The crude extracts were clarified by centrifugation at 30 000 g and PGD activity was determined using the McKitrick and Pizer test (1980, J. Bacteriol. 141:235-245).

[2] = target: 3-phosphoglycerate dehydrogenase (PGD); assay: Inhibition of PGD activity by L-serine, inhibitor constant Ki; assay type: biochemical, Escherichia coli; settings: Ki = inhibitor concentration at which activity is 50% of activity without inhibitor
From the text: as §1, §2

Molecule	Activity [1]	Ki [2]
B1	0.05 units/mg	25 mM
B2	0.05 units/mg	40 mM
B3	0.05 units/mg	5 mM
B4	0.05 units/mg	100 mM
B5	0.04 units/mg	60 mM
B6	0.05 units/mg	1 mM
B7	0.04 units/mg	40 mM
B8	0.04 units/mg	10 mM
B9	0.05 units/mg	60 mM
B10	0.03 units/mg	60 mM
B11	0.05 units/mg	1 mM
B12	0.05 units/mg	80 mM
B13	0.05 units/mg	8 mM
B14	0.05 units/mg	40 mM
B15	0.05 units/mg	20 mM
B16	0.02 units/mg	3 mM
B17	0.05 units/mg	35 mM
B18	0.05 units/mg	100 mM
